In patent publication US20120277143A1 (Janssen / Centocor, published 2012):
Changes are numbered by the printed parent chain.

T1: human IL4 (human, UniProt P05112 25-153, biotinylated in the SPR and competition assays (sites not given))
T1 sequence: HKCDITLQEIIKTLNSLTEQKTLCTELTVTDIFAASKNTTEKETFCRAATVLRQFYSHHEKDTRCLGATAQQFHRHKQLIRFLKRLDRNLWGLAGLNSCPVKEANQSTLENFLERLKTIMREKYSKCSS

B1: C06_19C3 (designed binder)
chain: DLGKKLLEAARAGQDDEVRILMANGADVNATDDWGDTLLHLAATDGHLEIVEVLLKNGADVNAIDAMGMTPLHLAAVYGYLEIVEVLLKNGADVNAMDFSGFTPLHLAAFSGHLEIVEVLLKYGADVNAQDKFGKTAFDISIDNGNEDLAEILQKLN
notes: ankyrin repeat protein; His-tagged, IMAC-purified
B2: C06_19F8 (designed binder)
chain: DLGKKLLEAARAGQDDEVRILMANGADVNATDDWGDTLLHLAATDGHLEIVEVLLKNGADVNASDSQGLTPLHLAAYYGHLEIVEVLLKYGADVNANDHHGITPLHLAAFAGHLEIVEVLLKYGADVNAQDKFGKTAFDISIDNGNEDLAEILQKLN
notes: as for B1
B3: C06_50E5 (designed binder)
chain: B1 chain with V28A
notes: as for B1
B4: C06_17A11 (designed binder)
chain: B1 chain with T31I, D33E, L38P, T44I, D45E, N57Y, I64S
notes: as for B1
B5: C06_54C2 (designed binder)
chain: B1 chain with A108T
notes: as for B1
B6: C06_44C12 (designed binder)
chain: DLGKKLLEAASAGQDDEVHILMANGADVNALDDSGYTPLHLAAEDGHLEIVEVLLKHGADVNAADRMGDTPLHLAAFVGHLEIVEVLLKYGADVNAVDLAGVTPLHVAAFYGHLEIVEVLLKYGADVNAQDKFGKTAFDISIDNGNEDLAEILQKLN
notes: as for B1
B7: C06_48F3 (designed binder)
chain: B6 chain with S11R, H19R, L31F, Y36L, E44D
notes: as for B1
B8: C06_44F6 (designed binder)
chain: B6 chain with K5E, S11R, A64M, R66N, M67I, D69N, P71S, V78D, Y123H
notes: as for B1
B9: C06_24H1 (designed binder)
chain: B6 chain with S11R, H19R, L31H, D33N, Y36F, D45I, H57Y, Y123N
notes: as for B1
B10: C06_43G2 (designed binder)
chain: DLGKKLLEAARAGQDDEVRILMANGADVNAKDVTGETPLHLASWEGHLEIVEVLLKHGADVNAQDLFGITPLHLAAATDGHLEIVEVLLKNGADVNATDSNGFTPLHLAASYGHLEIVDVLLKNGADVNAHDFDGFTPLHLAASWGHLEIVEVLLKYGADVNAQDKFGKTAFDISIDNGNEDLAEILQKLN
notes: as for B1
B11: C06_53E9 (designed binder)
chain: DLGKELLEAASAGQDDEVHILMANGADVNASDKDGSTPLHLAAVYGHLEIVEVLLKYGADVNAEDMNGYTPLHLAAADGHLEIVEVLLKYGADVDAKDRTGWTPLHLAGEFGHLEIVEVLLKYGADVNAQDKFGKTAFDISIDNGNEDLAEILQKLN
notes: as for B1
B12: C06_13A10 (designed binder)
chain: DLGKKLLEAARAGQDDEVRILMANGADVNVSDRIGNTPLHLAAVYVHLEIVEVLLKNGADVNALDDDGLTPLHLAAADGHLEIVEVLLKHGADVNATDSHVWTPLHLAAFFGHLEIVEVLLKYGADVNAQDKFGKTAFDISIDNGNEDLAEILQKLN
notes: as for B1
B13: C06_4A7 (designed binder)
chain: DLGKKLLEAARAGQDDEVRILMANGADVNAEDDWGLTPLHLAAMLGHLEIVEVLLKYGADVNAKDDTGFTPLHLAAVEGHLEIVEVLLKYGADVNASDILGRTPLHLAANFGHLEIVEVLLKYGADVNAQDKFGKTAFDISIDNGNEDLAEILQKLN
notes: as for B1
B14: C06_42A11 (designed binder)
chain: B13 chain with R11S, A12V, R19H, E31T, D33A, M44L, Y57H, K64H, D66E, Y123H
notes: as for B1
B15: C06_20B8 (designed binder)
chain: DLGKKLLEAASAGQDDEVHILMANGADVNAVDHDGFTPLHLAAADGHLEIVEVLLKHGADVNADDNFGWTPLHLAAFFGHLEIVEVLLKHGADVNAKDQTGLTPLHLAAVDGHLEIVEVLLKHGADVNAQDKFGKTAFDISIDNGNEDLAEILQKLN
notes: as for B1
B16: C06_42C7 (designed binder)
chain: B15 chain with H19R
notes: as for B1
B17: C06_28D4 (designed binder)
chain: B15 chain with K5E, H123N
notes: as for B1
B18: C06_26H2 (designed binder)
chain: DLGKKLLEAARAGQDDEVRILMANGADVNAYDSSGDTPLHVAAIDGHLEIVEVLLKHGADVNASDASGDTPLHLAADFGHLKIVEVLLKHGADVNAEDMIGITPLHLAAYNGHLEIVEVLLKNGADVNASDVHGFTPLHLAAFIGHLGIVEVLLKYDADVNAQDKFGKTAFDISIDNRNEDLAEILQKLN
notes: as for B1
B19: C06_14A4 (designed binder)
chain: B13 chain with E31T, D33A, M44L, Y57H, K64H, D66E
notes: as for B1

target: T1, human IL4; assay: cell-based or functional assay

Row | Binder | HEK Stat6 Inhibition IC50 | A549 TARC Inhibition IC50 | Type 1 Complex inhibition IC50
1 | B1 | 1.5 pM |  | 
2 | B2 | 15.2 pM |  | 
3 | B3 | 3.5 pM |  | 
4 | B4 | 3 pM |  | 
5 | B5 | 3.2 pM |  | 
6 | B6 | 1.1 pM | 231 pM | 1.7 pM
7 | B7 | 4.7 pM |  | 
8 | B8 | 6.4 pM | 142 pM | 24.9 pM
9 | B9 | 241 pM |  | 
10 | B10 | 1.6 pM | 262 pM | 0.8 pM
11 | B11 | 14.3 pM |  | 
12 | B12 | 5.4 pM | 621 pM | 6.6 pM
13 | B13 | 444 pM |  | 
14 | B14 | 19.3 pM | 325 pM | 3.2 pM
15 | B15 | 4 pM | 288 pM | 3.8 pM
16 | B16 | 6.8 pM |  | 
17 | B17 | 3.2 pM |  | 
18 | B18 | 3.3 pM |  | 

target: T1, human IL4; assay: SPR ProteOn, biotin-IL4 on neutravidin chip, 1:1 fit
Experimental: Purified binders selected as “hits” were ranked by their affinity on a ProteOn XPR-36 instrument (Bio-Rad). ProteOn is an optical biosensor instrument that measures protein-protein interactions in real time, based on Surface Plasmon Resonance technology similar to Biacore (GE). A rapid experimental protocol was performed as follows: On a GLC sensor chip (Bio-Rad), Neutravidin (Thermo Scientific) was covalently immobilized to a density of >5000 RU using amine coupling chemistry as described by the manufacturer. On one flow cell, biotinylated IL4 (Peprotech) was immobilized to a level of 250 RU, while another flow cell was used as reference, with neutravidin immobilized only. […] The retrieved values were used to rank the AR proteins by their affinity.

Row | Binder | Kd | koff | kon
19 | B1 | 101 pM | 9.73e-05 s⁻¹ | 962000 M⁻¹ s⁻¹
20 | B2 | 1410 pM | 5.18e-05 s⁻¹ | 36600 M⁻¹ s⁻¹
21 | B3 | 174 pM | 0.000126 s⁻¹ | 725000 M⁻¹ s⁻¹
22 | B4 | 136 pM | 0.00014 s⁻¹ | 1.03e+06 M⁻¹ s⁻¹
23 | B5 | 400 pM | 0.000161 s⁻¹ | 403000 M⁻¹ s⁻¹
24 | B6 | 43.6 pM | 3.77e-05 s⁻¹ | 864000 M⁻¹ s⁻¹
25 | B7 | 174 pM | 0.000151 s⁻¹ | 872000 M⁻¹ s⁻¹
26 | B8 | 96.7 pM | 0.0002 s⁻¹ | 2.07e+06 M⁻¹ s⁻¹
27 | B10 | 42.7 pM | 5.98e-05 s⁻¹ | 1.4e+06 M⁻¹ s⁻¹
28 | B11 | 326 pM | 0.000281 s⁻¹ | 862000 M⁻¹ s⁻¹
29 | B12 | 59.2 pM | 0.000149 s⁻¹ | 2.52e+06 M⁻¹ s⁻¹
30 | B19 | 85.8 pM | 2.73e-05 s⁻¹ | 318000 M⁻¹ s⁻¹
31 | B14 | 7.5 pM | 5.43e-06 s⁻¹ | 727000 M⁻¹ s⁻¹
32 | B15 | 80.9 pM | 0.000163 s⁻¹ | 2.02e+06 M⁻¹ s⁻¹
33 | B16 | 97.8 pM | 0.000179 s⁻¹ | 1.83e+06 M⁻¹ s⁻¹
34 | B17 | 85.6 pM | 0.000138 s⁻¹ | 1.62e+06 M⁻¹ s⁻¹
35 | B18 | 71.2 pM | 0.000247 s⁻¹ | 3.47e+06 M⁻¹ s⁻¹

target: T1, human IL4; assay: Luminex competition, 67 pM biotin-IL4 binding to IL4RA-Fc beads
Experimental: For biotinylation of IL4, recombinant human IL4 (Peprotech) was biotinylated at a 4:1 ratio using EZ-Link NHS-LC-Biotin (Pierce, #21336) for 2 hours at RT. The protein was dialyzed in PBS overnight to remove excess biotinylation reagent. Competition binding for cynomologous IL4 (SEQ ID NO: 5) was performed using the isolated protein biotinylated in the same manner.
AR protein inhibition of IL4 binding to IL4 RA was assessed using IL4 RA-Fc (R&D Systems), comprising the Gly24-His232 which represents the ECD (SEQ ID NO: 5) fused to a human IgGl-Fc and therefor a disulfide linked homodimer. The protein was conjugated to carboxylated Luminex microspheres according to the manufacturer's protocol. For neutralization experiments, 5000 IL4RA-Fc conjugated beads in 50 μl were added to each well of a 96-well filter plate (Millipore). Biotinylated human IL4 was mixed with an appropriate dilution of AR protein in Luminex Assay Buffer (PBS, 1% BSA, pH 7.4) to give a final concentration of 67 pM IL4. The plate was incubated for 1 hour at RT in the dark on a plate shaker, set to shake vigorously to avoid bead aggregation. The plate was washed twice with 150 μl of wash buffer (PBS, 0.1% BSA, pH 7.4, 0.05% Tween-20) using a vacuum manifold followed by the addition of 50 μl of Streptavidin PE at 25 μg/ml and incubated at RT for 20 minutes. The plates were washed again and 150 μl of sheath fluid was added and the plate was placed on the shaker for 5 minute. Plates were read using a Luminex® 100 system; data were plotted as a function of AR protein concentration. IC₅₀ values were determined by fitting the data to the equation for sigmoidal dose response using PRISM software (GraphPAD PRISM) (Table 6).

Row | Binder | IC50
36 | B1 | 6.3 pM
37 | B2 | 17.6 pM
38 | B3 | 14.8 pM
39 | B4 | 74.4 pM
40 | B5 | 16.8 pM
41 | B6 | 20.3 pM
42 | B7 | 19.7 pM
43 | B8 | 15.8 pM
44 | B9 | 71.7 pM
45 | B10 | 23.5 pM
46 | B11 | 17.8 pM
47 | B12 | 30.6 pM
48 | B13 | 44.3 pM
49 | B14 | 65.6 pM
50 | B15 | 20.5 pM
51 | B16 | 45.9 pM
52 | B17 | 35.3 pM
53 | B18 | 31.4 pM
